# Experimental data from IntAct's records for PubMed 29892012.
# B1: Late cornified envelope protein 1B (Homo sapiens), Q5T7P3 (parent)
# chain: MSCQQNQQQCQPPPKCIPKCPPKCLTPRCPPKCPPKCPPVSSCCSVSSGGCCGSSSGGSCGSSSGGCCSSGGGGCCLSHHRRRRSHCHRPQSSGCCSQPSGGSSCCGGGSGQHSGGCC
# partner: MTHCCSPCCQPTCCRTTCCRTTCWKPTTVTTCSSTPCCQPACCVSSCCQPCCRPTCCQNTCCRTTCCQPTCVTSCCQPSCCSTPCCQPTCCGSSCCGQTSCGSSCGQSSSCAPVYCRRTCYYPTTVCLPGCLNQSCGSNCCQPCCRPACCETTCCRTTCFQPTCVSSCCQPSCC
# B2: Melanoma-associated antigen 8 (Homo sapiens), P43361 (parent)
# chain: MLLGQKSQRYKAEEGLQAQGEAPGLMDVQIPTAEEQKAASSSSTLIMGTLEEVTDSGSPSPPQSPEGASSSLTVTDSTLWSQSDEGSSSNEEEGPSTSPDPAHLESLFREALDEKVAELVRFLLRKYQIKEPVTKAEMLESVIKNYKNHFPDIFSKASECMQVIFGIDVKEVDPAGHSYILVTCLGLSYDGLLGDDQSTPKTGLLIIVLGMILMEGSRAPEEAIWEALSVMGLYDGREHSVYWKLRKLLTQEWVQENYLEYRQAPGSDPVRYEFLWGPRALAETSYVKVLEHVVRVNARVRISYPSLHEEALGEEKGV
# partner: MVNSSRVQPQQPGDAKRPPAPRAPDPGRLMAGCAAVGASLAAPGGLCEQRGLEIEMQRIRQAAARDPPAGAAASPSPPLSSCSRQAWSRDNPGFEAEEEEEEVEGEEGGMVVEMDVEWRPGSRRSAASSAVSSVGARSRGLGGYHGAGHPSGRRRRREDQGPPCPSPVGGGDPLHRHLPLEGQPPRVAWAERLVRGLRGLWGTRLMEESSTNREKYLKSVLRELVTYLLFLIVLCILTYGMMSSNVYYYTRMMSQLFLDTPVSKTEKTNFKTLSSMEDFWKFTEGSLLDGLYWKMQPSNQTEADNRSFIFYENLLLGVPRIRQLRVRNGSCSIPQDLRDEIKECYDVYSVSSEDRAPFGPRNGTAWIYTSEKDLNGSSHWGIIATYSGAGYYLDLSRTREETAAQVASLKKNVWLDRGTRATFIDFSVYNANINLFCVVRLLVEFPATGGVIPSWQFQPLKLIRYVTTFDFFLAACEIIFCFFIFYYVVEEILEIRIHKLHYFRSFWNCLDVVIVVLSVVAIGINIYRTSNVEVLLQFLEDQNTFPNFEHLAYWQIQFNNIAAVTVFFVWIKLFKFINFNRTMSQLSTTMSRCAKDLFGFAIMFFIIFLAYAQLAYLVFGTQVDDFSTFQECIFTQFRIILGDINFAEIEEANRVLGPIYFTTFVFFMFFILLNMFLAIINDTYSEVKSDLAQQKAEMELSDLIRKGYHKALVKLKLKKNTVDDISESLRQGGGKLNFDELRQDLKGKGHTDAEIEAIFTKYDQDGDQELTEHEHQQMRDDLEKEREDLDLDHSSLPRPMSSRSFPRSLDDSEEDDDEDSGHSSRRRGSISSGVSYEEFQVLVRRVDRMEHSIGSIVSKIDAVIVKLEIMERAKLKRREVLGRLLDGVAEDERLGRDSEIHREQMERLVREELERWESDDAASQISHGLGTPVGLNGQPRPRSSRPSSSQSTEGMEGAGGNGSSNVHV
# B3: Melanoma-associated antigen 8 (Homo sapiens), P43361 (parent)
# chain: B2 chain
# partner: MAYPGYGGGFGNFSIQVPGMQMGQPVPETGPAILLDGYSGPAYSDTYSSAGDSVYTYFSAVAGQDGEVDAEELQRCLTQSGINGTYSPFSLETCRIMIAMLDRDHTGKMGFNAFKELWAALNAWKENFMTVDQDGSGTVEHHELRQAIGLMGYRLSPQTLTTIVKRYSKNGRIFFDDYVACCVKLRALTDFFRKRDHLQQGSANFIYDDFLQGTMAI
# B4: RNA-binding protein 3 (Homo sapiens), P98179 (parent)
# chain: MSSEEGKLFVGGLNFNTDEQALEDHFSSFGPISEVVVVKDRETQRSRGFGFITFTNPEHASVAMRAMNGESLDGRQIRVDHAGKSARGTRGGGFGAHGRGRSYSRGGGDQGYGSGRYYDSRPGGYGYGYGRSRDYNGRNQGGYDRYSGGNYRDNYDN
# partner: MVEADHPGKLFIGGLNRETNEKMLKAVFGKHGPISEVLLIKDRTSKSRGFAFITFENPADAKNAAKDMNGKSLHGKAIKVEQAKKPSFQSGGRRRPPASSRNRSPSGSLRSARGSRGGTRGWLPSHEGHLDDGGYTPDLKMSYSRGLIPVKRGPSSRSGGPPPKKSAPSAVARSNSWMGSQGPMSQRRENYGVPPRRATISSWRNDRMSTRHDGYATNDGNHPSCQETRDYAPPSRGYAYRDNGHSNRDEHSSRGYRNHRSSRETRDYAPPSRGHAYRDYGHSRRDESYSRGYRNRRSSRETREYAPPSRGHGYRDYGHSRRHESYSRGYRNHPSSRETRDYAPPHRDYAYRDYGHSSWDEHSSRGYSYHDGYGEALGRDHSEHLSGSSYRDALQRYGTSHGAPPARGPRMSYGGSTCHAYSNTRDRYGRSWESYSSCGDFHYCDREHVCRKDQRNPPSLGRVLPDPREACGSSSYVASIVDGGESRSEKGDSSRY
# B5: RNA-binding protein 3 (Homo sapiens), P98179 (parent)
# chain: B4 chain
# Variants of: B1
# Settings: with kra92_human KRTAP9-2, Q9BYQ4
row,Variant,effect of a mutation on the interaction
1,MSCQQNQQQCQPPPKYIPKCPPKCLTPRCPPKCPPKCPPVSSCCSVSSGGCCGSSSGGSCGSSSGGCCSSGGGGCCLSHHRRRRSHCHRPQSSGCCSQPSGGSSCCGGGSGQHSGGCC [C16Y],disrupting interaction strength

# Variants of: B2
# Settings: with pkd2_human PKD2, Q13563
row,Variant,effect of a mutation on the interaction
1,MLLGQKSQRYKAEEGLQAQGEAPGLMDVQIPTAEEQKAASSSSTLIMGTLEEVTDSGSPSPPQSPEGASSSLTVTDSTLWSQSDEGSSSNEEEGPSTSPDPAHLESLFREALDEKVAELVRFLLRKYQIKEPVTKAEMLESVIKNYKNHFPDIFSKASECMQVIFGIDVKEVDPAGHSYILVTCLGLSYDGLLGDDQSTPKTGLLIIVLGMILMEGSCAPEEAIWEALSVMGLYDGREHSVYWKLRKLLTQEWVQENYLEYRQAPGSDPVRYEFLWGPRALAETSYVKVLEHVVRVNARVRISYPSLHEEALGEEKGV [R218C],disrupting interaction strength

# Variants of: B3
# Settings: with gran_human GCA
row,Variant,effect of a mutation on the interaction
1,MLLGQKSQRYKAEEGLQAQGEAPGLMDVQIPTAEEQKAASSSSTLIMGTLEEVTDSGSPSPPQSPEGASSSLTVTDSTLWSQSDEGSSSNEEEGPSTSPDPAHLESLFREALDEKVAELVRFLLRKYQIKEPVTKAEMLESVIKNYKNHFPDIFSKASECMQVIFGIDVKEVDPAGHSYILVTCLGLSYDGLLGDDQSTPKTGLLIIVLGMILMEGSCAPEEAIWEALSVMGLYDGREHSVYWKLRKLLTQEWVQENYLEYRQAPGSDPVRYEFLWGPRALAETSYVKVLEHVVRVNARVRISYPSLHEEALGEEKGV [R218C],with no effect

# Variants of: B4
# Settings: with rby1a_human RBMY1A1, P0DJD3
row,Variant,effect of a mutation on the interaction
1,MSSEEGKLFVGGLNFNTDEQALEDHFSSFGPISEVVVVKDRETQRSRGFGFITFTNPEHASVAMRAMNGESLDGRQIRVDHAGKSARGTRGGGFGAHGRGRSYSRGGGDQGYGSGRYYDSRPGGYGYGYGRSRDYNGRNQGGYDHYSGGNYRDNYDN [R145H],with no effect

# Variants of: B5
# Settings: with snrpa_human SNRPA
row,Variant,effect of a mutation on the interaction
1,MSSEEGKLFVGGLNFNTDEQALEDHFSSFGPISEVVVVKDRETQRSRGFGFITFTNPEHASVAMRAMNGESLDGRQIRVDHAGKSARGTRGGGFGAHGRGRSYSRGGGDQGYGSGRYYDSRPGGYGYGYGRSRDYNGRNQGGYDHYSGGNYRDNYDN [R145H],with no effect

# Variants of: B5
# Settings: with rbmx_human RBMX
row,Variant,effect of a mutation on the interaction
1,MSSEEGKLFVGGLNFNTDEQALEDHFSSFGPISEVVVVKDRETQRSRGFGFITFTNPEHASVAMRAMNGESLDGRQIRVDHAGKSARGTRGGGFGAHGRGRSYSRGGGDQGYGSGRYYDSRPGGYGYGYGRSRDYNGRNQGGYDHYSGGNYRDNYDN [R145H],with no effect
